Reference: patent publication US12662540B2, “Compositions and methods for inhibition of MICA/B shedding” (DANA-FARBER CANCER INSTITUTE, INC., priority 2017, dated 2026)

Tests used:
B16F10-MICA cells = test: Mouse NK cell transfer and B16F10-MICA metastases in Rag2−/− Il2rg−/− mice; type: in vivo
Method: NK cell adoptive transfer was done as described previously (25). Briefly, NK cells from mice of indicated genotypes were isolated from the spleen, enriched by negative selection, and sorted to achieve an NK cell purity of ˜99%. Subsequently, 2×10^5 NK cells were injected intravenously into Rag2^−/− IL2rg^−/− mice. Three days later, reconstitution was checked in blood samples by flow cytometry, and no differences in NK cell frequency were observed among the NK cell genotypes. Subsequently, 4×10^5 B16F10-MICA cells (with luciferase reporter) were injected intravenously (day 0). On days 1, 2, 7, and 10, mice received 200 μg 7C6-mIgG2b or MPC-11 (isotype control) by intraperitoneal injection. Mice were bled at the indicated time points. Euthanasia by CO2 inhalation was performed on day 14 followed by counting of superficial lung metastases as described above.

[1] = test system: B16F10-MICA lung metastases; test: Flow cytometry-based analysis of immune and tumor cells in lung tissue; type: in vivo, C57BL/6 mice
Method: Wild-type mice were injected with 1×10^6 B16F10 cells that were previously transduced with ZsGreen-based lentiviral vectors (full-length MICA, secreted MICA or empty vector). In some experiments, mice received a lower dose of B16F10-MICA tumor cells (7×10^5). On days 1, 2, 7 and 10 following B16F10-MICA cell injection, mice received 200 μg of 7C6-mIgG2a or isotype control (C1184) antibodies by intraperitoneal injection. Prior to euthanasia, mice received an intravenous injection of 50 μl of APC-conjugated anti-CD45.2 (clone104, Biolegend) to label intravascular immune cells. Approximately 5 minutes later, mice were euthanized by CO2 inhalation and cell suspensions were generated from lung tissue. Lungs were cut into small pieces which were re-suspended in 10 ml of RPMI-1640 supplemented with 1 mg/ml collagenase type IV, 0.1 mg/ml hyaluronidase, and 20 U/ml DNase type IV. Samples were dissociated in a gentleMACS instrument (Miltenyi) using the program 37C_m_LDK 1 which digests the tissue by incubation with 37° C. followed by mechanical dissociation. Cells were then washed with PBS, Fc receptors were blocked with Mouse True Stain FcX (Biolegend), and cells were stained with PE-Cy7 or v450-conjugated anti-CD45.2 (104), PE or BV785-NK1.1 (PK136), PerCP-Cy5.5 or Alexa^700-NKp46 (29A1.4), APC or APC-Cy7-CD3c (145.2C11), APC or BV511-TCRβ, PE-Cy5 or Alexa^488-CD69 (H1.2F3), BV421-NKG2D (CX5), BV510-Ly49C (5E6), BV570-CD62L (MEL-14), BV605-CD49a (Ha31/8), Alexa^488-EOMES (Dan11mag), PE-Granzyme A (GzA-3G8.5), PE or PERCP-Cy5.5-CD16/CD32 (93), PE-Cy7-Granzyme B (NGZB), BV510-DNAM-1 (10E5), Alexa^488-KLRG1 (2F1), PE-CXCR6 (SA051D1), PERCP-Cy5.5 or PE-Cy7-CD127 (A7R34), BV510-CXCR3 (CXCR3-173), Zombie NIR, Zombie Yellow or Zombie UV (all from Biolegend, BD Pharmigen or eBiosciences). For transcription factor staining, cells were fixed and permeabilized by a Transcription Factor Buffer kit (BDB562574). For Fc receptor staining, small aliquots of cells from the lung suspensions were separated and stained with PE or PerCP-Cy5.5-CD16/32 antibody (the incubation with Mouse True Stain FcX was skipped in that aliquot of cells). Tumor cells were stained with APC-conjugated anti-H2-Kb (AF6-88.5, Biolegend) and BV650-activated Caspase-3 (C92-605, BD Pharmingen) following permeabilization. Even though the CD45.2 antibody given intravenously and the anti-H2-Kb antibody were conjugated to the same fluorophore (APC), B16F10 cells could be identified based on their larger size, ZsGreen expression as well as the absence of CD45.2 expression. Samples were acquired using a LSR Fortessa, CytoFLEX or a Sony Spectral Analyzer and analyzed by FlowJo V10 software.

[2] = test system: A375 human melanoma cell line; test: Dacarbazine combination with MICA/B antibody, A375 cells; type: cell-based
MICA = test: ELISA for antibody binding to immobilized MICA extracellular domain (α1-α3 domains; alleles 002, 008, 009, 018); parameters: species or system human; details: immobilized antigen
Method: (§1) ELISA experiments were performed in DELFIA® 96-well plates (Perkin Elmer) or in Nunc Maxisorp 96-wells plates (Thermo Scientific). Wells were coated with antigens by overnight incubation at 4° C. using 100 ng of protein in 100 μl of carbonate buffer, […]. Plates were subsequently washed with 1× Tris-buffered saline-Tween buffer and incubated for 2 hours with 2% bovine serum albumin (BSA) in phosphate buffered saline (PBS), pH 7.4, or DELFIA® Assay Buffer (Perkin Elmer) at room temperature. MICA antibodies were used at 1 μg/ml, unless indicated otherwise. Isotype controls were MPC-11 (mIgG2b) and MOPC-21 (mIgG1), but only MPC-11 is shown in the figures, given that no differences were observed between these controls. Human isotype control was a recombinant human IgG1 antibody (BE0096, BioXcell). Biotinylated goat anti-mouse IgG (Poly4053—Biolegend) was used as the secondary antibody which was followed by streptavidin-Europium (Perkin Elmer) and DELFIA® Enhancement Solution (Perkin Elmer). Europium fluorescence was quantified using an EnVision® microplate reader (Perkin Elmer). The HRP-conjugated secondary antibodies were Novex® Goat anti-human IgG (A24470, Life Technologies), Goat anti-mouse IgG1 (1070-05), IgG2a (1080-08), IgG2b (1090-05), and IgG3 (1100-05), and Goat anti-mouse IgG (31430, Thermo Scientific). […] Absorbance was read at 450 nm.

MICA α3 domain = test: ELISA for antibody binding to immobilized MICA α3 domain; parameters: species or system human; details: fluorescence-based ELISA, immobilized antigen
Method: as §1

B1: 7C6: monoclonal antibody from mice immunized with recombinant MICA α3 domain; parental mIgG2b; VH SEQ ID NO: 7, VL SEQ ID NO: 8 (antibody)
VH: QIQLVQSGPELKKPGETVKVSCKASGYMFTNYAMNWVKQAPEKGLKWMGWINTHTGDPTYADDFKGRIAFSLETSASTAYLQINNLKNEDTATYFCVRTYGNYAMDYWGQGTSVTVSSAKTTAPSVYPLAPVCGDTTGSSVTLGCLVKGYFPEPVTLTWNSGSLSSGVHTFPAVLQSDLYTLSSSVTVTSS
VL: DIQMTQTTSSLSASLGDRVTISCSASQDISNYLNWYQQKPDGTVKLLIYDTSILHLGVPSRFSGSGSGTDYSLTISNLEPEDIATYYCQQYSKFPRTFGGGTTLEIK
modifications: mAb 7C6 heavy chain amino acid sequence; mAb 7C6 light chain amino acid sequence
- lung metastases after transfer of NK cells deficient in either NKG2D (Klrk1) or CD16 (Fcgr3a) (B16F10-MICA cells; day 14): therapeutic effect was maintained (but more variable)
- lung metastases after transfer of NK cells lacking both NKG2D and CD16 (B16F10-MICA cells; day 14): antibody therapy was ineffective
- lung metastases after transfer of WT NK cells (B16F10-MICA cells; day 14): most consistent reduction in the number of lung metastases
- serum shed MICA after transfer of NK cells lacking both NKG2D and CD16 (B16F10-MICA cells; mouse, in vivo): shed MICA was still reduced
- H2-Kb (MHC class I) expression by tumor cells ([1]; lung metastases): MHC class I upregulation
- apoptosis of tumor cells (active caspase-3) ([1]; lung metastases): massive tumor cell apoptosis
- B16F10-MICA tumor cells within lung tissue (percentage, absolute numbers) ([1]; mouse, in vivo): substantial reduction of tumor cell load within lung tissue
- NKG2D levels on lung-infiltrating NK cells ([1]; versus isotype control): restored NKG2D levels by lung NK cells
- human NK cell killing of A375 cells, dacarbazine combination with MICA/B antibody ([2]; 30 mM dacarbazine, 10 μg/ml 7C6, 48 hours): is increased by dacarbazine combination with MICA/B antibody
- MICA/B shedding (6D4-PE staining) ([2]; A375, 48 hours, 10 μg/ml antibody with dacarbazine): inhibited MICA/B shedding
- binding to MICA full-length extracellular domain (MICA): also the full-length extracellular domain
- binding to MICA α3 domain (MICA α3 domain): bound to the MICA α3 domain
